Here are results for one substance from paper PMC5829300.

The target of this assay is ^hexYME1^WB (^hexYME1 variant containing an E381Q Walker B mutant) (yeast) (UniProt P32795). In words: cryo-EM structure.

One may read the stoichiometry N as a count of units in the complex or per binding partner. In the case of “^hexYME1^WB (^hexYME1 variant containing an E381Q Walker B mutant) (from UniProt P32795 279-712) (enzyme)”, the stoichiometry N worked out at 6.
